Values of other authors as cited in PMC5641599 (Molecular Metabolism, 2017).
Read-outs that look alike come from different tables or passages of the source.

Assays:
MC4R variants [1] = conditions: cited from earlier work
MC4R variants [2] = conditions: cited from earlier work; remark: listed apart in the source
MC4R variants [3] = conditions: ref Larsen LH, J Clin Endocrinol Metab, 2005, cited from earlier work
[4] = ref Rong R, Clin Endocrinol, 2006
[5] = COS-7 cell line, ref Hughes DA, Hum Genet, 2009
[6] = COS-7 cell line, ref Brumm H, Obesity, 2012
[7] = ref Wang ZQ, Biochim Biophys Acta, 2011
[8] = COS-7 cell line, ref Hinney A, J Clin Endocrinol Metab, 2006
[9] = ref Fan ZC, J Cell Mol Med, 2009
[10] = ref Srinivasan S, J Clin Invest, 2004
[11] = ref Xiang Z, Biochemistry, 2010
[12] = ref Lubrano-Berthelier C, J Clin Endocrinol Metab, 2006

In the case of C40R, the Basal activity (MC4R variants [1]; COS-7 cell line, ref Tarnow P, J Biol Chem, 2003) is given as 112 % of WT, the Basal activity (MC4R variants [1]; [4]) is given as 157 % of WT and the Cell surface expression (MC4R variants [2]; [4]) is given as 100 % of WT.
In the case of C40Y, the Basal activity (MC4R variants [1]; [5]) is given as 108 % of WT and the Cell surface expression (MC4R variants [2]; [5]) is given as 49 % of WT.
For D37G, the Basal activity (MC4R variants [1]; ref Hughes DA, Hum Genet, 2009) is listed as 83 % of WT and the Cell surface expression (MC4R variants [2]; ref Hughes DA, Hum Genet, 2009) is listed as 100 % of WT.
In the case of “E61X (MVNSTHRGMHTSLHLWNRSSYRLHSNASESLGKGYSDGGCYEQLFVSPEVFVTLGVISLL; nonsense E61X; UniProt P32245 1-60, looked up, fragment)”, the Cell surface expression (MC4R variants [2]; [6]) is listed as 5 % of WT.
For G32E, the Basal activity (MC4R variants [1]; limited data, ref Ahituv N, Am J Hum Genet, 2007) is listed as 70 % of WT.
For G34A, the Cell surface expression (MC4R variants [2]; ref Moore BS, PLoS One, 2014) is listed as 85 % of WT.
For MT-II, the “cAMP Emax - Ligand no.2 (% of WT)” value (MC4R variants [3]; MC4R A219V, ligand no.2 MT-II) is listed as 34.0 % of WT and the “cAMP Emax - Ligand no.2” value (MC4R variants [3]; MC4R S36Y) is listed as 86.0 % of WT.
In the case of Q307X, the Basal activity (MC4R variants [1]; [7]) is given as 20 % of WT, the Cell surface expression (MC4R variants [2]; [6]) is given as 40 % of WT and the Cell surface expression (MC4R variants [2]; ref Santoro N, BMC Med Genet, 2009) is given as 31 % of WT. For the same substance, the Cell surface expression (MC4R variants [2]; [7]) was 20 % of WT.
For R7C, the Basal activity (MC4R variants [1]; [8]) is listed as 133 % of WT, the Basal activity (MC4R variants [1]; [9]) is listed as 100 % of WT and the Cell surface expression (MC4R variants [2]; [8]) is listed as 100 % of WT. For the same substance, the Cell surface expression (MC4R variants [2]; [9]) was 45 % of WT.
In the case of R7H, the Cell surface expression (MC4R variants [2]; [10]) is listed as 80 % of WT and the Cell surface expression (MC4R variants [2]; [11]) is listed as 100 % of WT.
In the case of R18C, the Basal activity (MC4R variants [1]; [12]) is given as 36 % of WT, the Cell surface expression (MC4R variants [2]; [12]) is given as 115 % of WT and the Cell surface expression (MC4R variants [2]; [10]) is given as 95 % of WT. The Cell surface expression (MC4R variants [2]; ref Xiang Z, Biochemistry, 2006) was 45 % of WT.
For R18H, the Basal activity (MC4R variants [1]; [12]) is listed as 46 % of WT, the Cell surface expression (MC4R variants [2]; [12]) is listed as 150 % of WT and the Cell surface expression (MC4R variants [2]; [10]) is listed as 95 % of WT. For the same substance, the Cell surface expression (MC4R variants [2]; [11]) was 85 % of WT.
